Two molecules from publication PMC5430633, “Phosphorylation of the mitochondrial autophagy receptor Nix enhances its interaction with LC3 proteins” (Scientific Reports, 2017) can be followed below.

What all share (settings): both partners purified
Experiment [1] addresses LC3B wild type (for ITC and NMR) (human, UniProt Q9GZQ8 1-120). In words: ITC; 25 °C, VP-ITC; peptides 0.31 mM titrated into 0.018 mM LC3B proteins in 25 steps; 40 mM Na2HPO4, 80 mM NaCl, pH 7.0; one-site binding model. A general note: Isothermal titration calorimetry measures the heat released or taken up as one component is titrated into another.
The target of experiment [2] is T1, LC3B wild type (for ITC and NMR) (human, UniProt Q9GZQ8 1-120). In words: ITC; rows marked WT*: previous set of conditions reported by Novak et al.: 50 mM NaPi, 150 mM NaCl, pH 7.5.
The next experiment concerns the target LC3B K51A (for ITC) (human, UniProt Q9GZQ8 1-120, K51A). In words: ITC; 25 °C, VP-ITC; peptides 0.31 mM titrated into 0.018 mM LC3B proteins in 25 steps; 40 mM Na2HPO4, 80 mM NaCl, pH 7.0; one-site binding model.
The target of the next experiment is LC3B R11A (for ITC) (human, UniProt Q9GZQ8 1-120, R11A). The description is as above.
The target in experiment [3] is T1, LC3B wild type (for ITC and NMR). Described as above. This is another data set of the same source.
The target in another experiment is LC3B K49A (for ITC) (human, UniProt Q9GZQ8 1-120, K49A). The experiment is described as above.

B1: Nix LIR P0 peptide (unphosphorylated) (peptide)
peptide: AGLNSSWVELPMNSSNG
notes: Nix LIR motif peptide without phosphorylation of Ser34 and Ser35; also called non-phosphorylated P0 peptide; source: synthetic peptide, bought: GenScript USA Inc, 95% pure
B1: the Kd – broadly, a measure of binding affinity in units of concentration – in experiment [1] worked out at 99 µM.
RPEEQMESDNCSGGDDDWTHLS [p62 LIR peptide]: the Ka in experiment [2] worked out at 680000 M⁻¹; with LC3B K51A (for ITC), 34000 M⁻¹; with LC3B R11A (for ITC), 233000 M⁻¹; in experiment [3], 498000 M⁻¹; with LC3B K49A (for ITC), 1.02e+06 M⁻¹. The Kd in experiment [2] is 1.47 µM; with LC3B K51A (for ITC), 29 µM; with LC3B R11A (for ITC), 4.29 µM; in experiment [3], 2.01 µM; with LC3B K49A (for ITC) it was 0.98 µM. In addition, the dH is -10.5 ± 0.13 kcal/mol in experiment [2]; -4.7 ± 0.01 kcal/mol in the experiment with LC3B K51A (for ITC); -8.22 ± 0.23 kcal/mol with LC3B R11A (for ITC); -9.38 ± 0.17 kcal/mol in experiment [3]; -10.84 ± 0.01 kcal/mol with LC3B K49A (for ITC). Besides, the stoichiometry N – broadly, the number of molecules, sites or subunits per partner or assembly – was 0.99 ± 0.01 in experiment [2], 1.06 ± 0.02 in the experiment with LC3B R11A (for ITC), 1.04 ± 0.01 in experiment [3] and 0.99 ± 0.01 with LC3B K49A (for ITC).
